Results taken from the nanobody polyreactivity screen of Harvey et al. (2022).

Test: yeast display, Sf9 membrane polyspecificity reagent, FACS + sequencing; frameworks hold sequencing errors
In short: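 Nanobodies from a synthetic yeast display library (Saccharomyces cerevisiae BJ5465), induced 36–48 hours with galactose, were stained 1 hour at 4 °C with 10% biotinylated, detergent-solubilized Sf9 membrane reagent, enriched on streptavidin microbeads, then FACS-sorted. Anti-HA (expression) and streptavidin (reagent binding) fluorescence set low and high (top ~1%) gates. Polyreactivity labels come from the gate of origin. Genes were colony-PCR amplified, MiSeq 2 × 250 sequenced and filtered by CDR length.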

Sequence	polyreactivity (PSR sort gate)
QVQLVESGGGLVQAGGSLRLSCAASGRIFGYNVMGWYIQAPGKERELVAAISWGTGSTYADSMKGRFTISRDNAKKTVYLQMNSLIPVDTAVYYCAADSFIPPYDHWGQGTQVTVSS	low polyreactivity
QVQLVESRGGLVQAGGSLRLSCAASGFIFLPYAMGWYRQAPGKERELVATINSGDSTYADSVKGRFTISRDNAKNTVYLQMNSLKPEDTAVNYCNAYWLVVPVDLDYWGQGTQVTVSS	low polyreactivity
QVQLVESGGGLVQAGGSLRLSCAASGRILYWYAMGGYRQAPGKERELVAGIDWSGGSTYYADSVKGRFTISRDNAKNTVYLQMNSLKPEDTAVYYCNAVQNRGRGSHRGESTYYYWGQGTQVTVSS	low polyreactivity
QVQLVESGGGLVQAGGSLRLSCAASGRTFRRYAMGWYRQAPGKERELVAAISRGANTNYADSVKGRFTISRDNAKNTVYLQMNSLKPEDTAVYYCIAKQAGYYFAFGYWGQGTQVTVSS	high polyreactivity
QVQLVESGGGLVQAGGSLRLSCAASGSTFDIYVMGWYRQAPGKEREFVAAITTTTGRTNYADSVKGRFTISRDYAKNTVYLQMNSLKPEDTAVYYCAAYVTWGKLWYGYWGQGTQVTVSS	high polyreactivity
QVHLVESGGGLVQAGGSLRLSCAATGRTFRSYAMGWYRQAPGKEREFVAAISRSGASTRYPDSVKGRFTISRDIAKTTVYLQMNSLKPEVTAVYYCAAVWPDVRGYDYWGQGTEVTVSS	high polyreactivity
QVQLVESGGGLVQAGGSLRLSCAASGRIVADYAMGWYRQAPGKERELVAAIRGSGGDTYYADSVKGRFTISRDNAKNTDYLQMNSLKPEDTAVYYCNAVDTYDLDNDYWGQGTQVTVSS	low polyreactivity
QVQLVESGGGLVQAGGSLRLSCAASGSTFYYYAMGWYRQAPGKERELFATINKNVGITYYADSVKGRFTISRDNAKNTVYLQRNSMKTEVTAVDYCAAHGRINPDGPRTVFFASEEDYWGQGTQVTVSS	low polyreactivity
QVQLVESGGGLVQAGGSLRLSCAASGSIFVNYAMGWYRQAPGKERELVAAISTGGGRTFYADSVKGRFTISRDNAKNTVYLQMNSLKPEDTAVYYCNKLGRPEYDYWGQGTQVTVSS	high polyreactivity
QVQLVESGGGLVQAGGSLRLSCAASGSISDTYGMGWYRQAPGKERELVASITWSSGSTDYADSVKGRFTISRDNAKNTVYLQMNSLKPAETAVYYCATYEPFYSFIFRGIYDYWGQGTQVTVSS	low polyreactivity
QVQLVESGGGLVQAGGSLRLSCAASGRIFYRYAMGWYRQAPGKERELVAAINDGGSTYYADSVKGRFTISRDNAKNTVYLQMNSLKPEDTAVYYCNVVNEHQSDFVVPFDYNHWGQGTQVSVSS	low polyreactivity
QVQLVESGGGLVQAGGSLRLSCAASGIIFYDYAMGWYRQAPGKERELVAAISTDAGSTYYADSVKGRFTISRDNAKNTVYLQMNSLKPEDTAVYYCNADEHSYSVSWDYEYDYWGQGTQVTVSS	high polyreactivity
QVQLVESGGGLVQAGGSLRLSCAASGRIFSYYAMGWYRQAPGKERELVATINSGGSTNYADSVKGRFTISRDNAKNTVYLQMNSLKPVATAVYYCAASPVWWYDYWGQGTQVTVSS	low polyreactivity
QVQLVESGGGLVQAGGSLRLSCAASGSIFAGNAMGWYRQAPGKERELVAAISRRGGSTYYADSVKGRFTISRDNAKNTVYLQMNSLKPEDTAVYYCNALLRYAYHAAYGYWGQGPQVTVSS	high polyreactivity
QVQLVESGGGLVQAGGSLRLSCAASGITFSRNGMGWYRQAPGKERELVAAISTSGDSTDYADSVKGRFTISRDNAKNTVYLQMNSLKPEDTAVYYCATEWSYYNYGYDYWGQGTQVTVSS	low polyreactivity
QVQLVESRGGLVQAGGSLRLSCAASGFIFLGNAMGWYRQAPGKERELVASISRGGSTNYADSVKGRFTISRDNAKNTVYLQMNSLKPEDTAVYYCAADLSDKFGYWGQGTQVTVSS	low polyreactivity
QVQLVESGGGLVQAGGSLRLSCAASGLIFYYYAMGWYRQAPGKERELVAAITTGGGTYYADSVKGRFTISRDNAKNTVYLQMNILKPEATAVFYCAVYYRSYWGYEYWGQGTQVTVSS	high polyreactivity
QVQLVESGGGLVQAGGSLRLSCAASARIFGWNAMGWYRQAPGKERELVAAISWRGGSTYYADSVKGRFTISRDNAKNTVYLQMNSLKPEDTAVYYCNALYTRYVSQWFGYWGQGTQVTVSS	high polyreactivity
QVQLVESGGGLVQAGGSLRLSCAASGRILLHYAMGWYRQAPGKERELVAAITSTGGTTYYADSVKGRFTISRDYAKNTFYLQMNSLKPEDTAVYYCAAKRQDSWGGTYGYWGQGTQVTVSS	low polyreactivity
QVQLVESGGGLVQAGGSLRLSCAASGSILDRYVMGWYRQAPGNGRELVSAITWSGSRTYYADSVKGRFTISRDNAKNTVYLQMNSLKPEDTAVYYCAKVIRRSSTLGNHYYWGQGTQVTVSS	high polyreactivity
QVQLVESGGGLVQAGGSLRLSCAASGSIFWLYAMGWYRQAPGKERELVARINWSGGNTYYADSVKGRFTISRDNAKNTDYLQMNSLKPEDTAVYYCNARSQYRMNYWGQGTQVTGSS	low polyreactivity

Sequence	polyreactivity (PSR sort gate)
QVQLVESGGGLVQAGGSLRLSCAASGITFYVYALGWYRQAPGKARALVAANNYDSGSTYYADSEKGRFTISRDNAKNTVYIQKNSLKPEDTAGYYCATDGVNPFYAYDYWGQGTQVTVSS	low polyreactivity
QDQLVESGGGLVQAGGSLRLSCAASGRTFIRNAMGWYRQAPGKERELVAAISRSGGRTYYADSVKGRFTISRDNAKNTVYLQMNSLKPEDTAVYYCAAGSYQRYAFDYWGQGTQVTVSS	high polyreactivity
QVQLVESGGCLVQAGGSLRLSCAASGSIFERNVMGWYRHAPGKERELVAAITSGGSTNYADSVKGRFTISRDNAKNTVYLQMNSLKPEETAVYYCAADVPYRSRFYRYRLSGGDYWGQGTQVTVSS	low polyreactivity
QVQLVESGGGLVQAGGSHRLSSAASARTFQDNPMGWYRQAPGKERELVAAISWRGGSTNYADSVKGRFTITRDNAKNTVYLQMNSLKPEDTAVYYCTRDRRKYGKLDYWGQGTQVTVSS	low polyreactivity
QDQLVESGGGLVQAGGTLRLSCAASGSTFARYAMGWYRQAPGKERELVAAISRRGGSTYYADSVKGRFTISRDNAKITVDLQMNSLKPEDTAVYSCAARYGIISYLEYDYWGQGTQVTVSS	high polyreactivity
QVQLVESAGGLVQAGGSLRLSCAASGNTFHSNALGWYRQAPGKERELVAAITPSDGDTYYADSVKGRFTISRDNAKNTVYLQMNSLKPEDTAVYYCAAEDDPGEYEYWGQGTQVTESS	low polyreactivity
QVQLVESGGGLVQAGGSLRLSCAASGITFGTYAMGWYRQATGKERELVDAITRGGRTYYADSVKGRFTISRDNDKNTVYLQMYSLKPEDTAVYYCNAYVLRRYGWRSGDDYDYWGQGTQVNVSS	high polyreactivity
QVQLVESGGGLVQAGGSLRLSCAASGRIFSTYALGWYRQAPGKERELVAAISYSGASTYYADSVKGRFTISRDNAKNTVYLQIKSMKPEDTAVYYCAKATYPHEYDYWGQGTQVTVSS	low polyreactivity
QVQLVESGGGLVQAGGSLRLSSAASGITFTRNAMGWYRQAPGKERELVATIDSGDSTYYADSVKGRFTISRDNAKNTVYLQMNSQKPEDTAVYYCAAEWYGYEPSYWYYWPYEYWGQGTQVTVSS	high polyreactivity
QVQLVESGGGLVQAGGSLRLSCAASGRIFVSNGMGWYRQAPGKERELVAVIRYSTGSTYYADSVKGRFTFSRDNAKTTVYLQMNCLKPEDTAVYYCAARNPFFEPSEYDYWGQGTQVTVSS	low polyreactivity
QVHHVESGGGLVQAGGSRRLSSAASRIIIDTNAMGWSSQAPGKERELVASISTRGGSTYYADSVKGRFTISRDNAKNTVYLQMISLKPANTPVYYCNAVQTYSGGYEYWGQGTQVTVSS	high polyreactivity
QVQLVESGGGLVQAGGSLRLSCAASGRIFGYYTMGWYRQAPGKERELVAAISSGGTTYYADSVKGRFTISRDNAKNTVYLQMNSLKPEDTAVYYCAADYYNTYGYDYWGQGTQVTVSS	low polyreactivity
QVQLQESGGGLVQAGGSQRLSCAASGSISILQSRGCYRQAPGKERELVAGINWGATTYYADSVKGRLTTSRDYAKNTVYLQMNSLKPEDTAVYYCAVPTYYTYPLLYWGQGTQVTVSS	low polyreactivity
QVQLVESGGGLVQAGGSLRLSCAASGSIFVINPMGWYRPAPGKERELVATIRARAGSTYYADSVKGRFTISRDNAKNSVYLQMNSLKPEDTAVYYCAARLKSYRVDYWGQGTQVTVSS	high polyreactivity
QVQLVESGGGLVQAGGSHRLSCAASGRIFSPYAMGWYRRAPGKERELVAAISYDDGITYYADSVKGRFTISRDNAKNTVYLQMNSLKPEDTAVYYCAADCVTRPAGDYWGQGTQVTVSS	low polyreactivity
HVQLVESGGGLVQAGGSLRLSCAASGSTFGENAMGWYRQAPGKERELVAAITWGTNTYYADSVKGRFTISRDNAKNTVYLQMNSLKPEDTAVYYCAAQFQTRGWRYVYWGQGTQVSVSS	low polyreactivity
QVHLVESGGGLVQAGGSLRVSCDASGILYTVYAMGWYRQAPGKQRELVAAITWSGGSTYYADSVKGRFTISRDNAKNTVYLQMNSLKPEDTEVYYCNTVGRVWDVETDGDYDYWGQGTQVTVSS	low polyreactivity
QVQLVESGGGLFQAGGSLRLSCADSGRIFTSNAMGWYRQATGKVRELVAVISRRGGSTYYADSVKGRFTISRDNAKNTVYLQMNSLKPEDTAVYYCNARVYWYYPMDYWGQGTQVTVSS	low polyreactivity
QVQLVESGGGLVQAGGSLRLSCAASGIIFVTNDMGWYRQAPGKERELVATITWSGGSTYYADSVKGRFTISRDNAKNTVYLQMNSLKPEDSAVYYCAAESRYTWIHSRDYWGQGTQVTVSS	low polyreactivity
QVQLVESGGGLVQAGGSLRLSCAASGSTFYIYAMGWYRQAPGKERELVAAITEGGGITYYADSVKGRFTISRDNAKNTVYLQMISLKPEDTAVYYCADVWGYYVLPYDYWGQGTQVTVSS	low polyreactivity
